Values quoted from earlier work in doi:10.1101/2025.04.18.649563.

Target: F-actin (Oryctolagus cuniculus) (UniProt P68135)
Conditions: cited from earlier work

LifeAct (from UniProt Q08641)
Kd: 2200 nM
